Tests used:
[1] = target: T1, Bcl-xL/Bak GD domain interaction (Homo sapiens, UniProt Q07817); assay: High through-put screening assay 2: GST-Bcl-xL binding to biotinylated Bak GD peptide on neutravidin wells, ELISA; conditions: competing peptide added, ELISA signal
T1 construct: made in house; host or cells: E. coli
Description: An assay was developed to screen for compounds that block the interaction between the Bcl-2 homologs, Bcl-xL and Bak. A synthetic peptide corresponding to the Bak GD binding domain ([…] [SEQ ID NO: 35]) was biotinylated and bound to wells coated with neutravidin. […] Peptides encompassing the GD domain from various Bcl-2 family members were tested for their ability to block GD domain-mediated interactions in this assay. Peptides tested: Bcl-w [SEQ ID NO: 39] […] ([…]), Bak [SEQ ID NO: 36]([…]), Bak-15 [SEQ ID NO: 37] ([…]), Bak-15L78A [SEQ ID NO: 38] ([…]), control (no peptide).
In a modification of the high through-put screening assay 1 described herein, wells are coated with an avidin derivative, to which a biotinylated peptide/protein is bound. A GST-fusion protein that can interact with the biotinylated peptide/protein is added in the presence or absence of test compounds. The plates are incubated and then unbound GST-fusion protein is removed by washing. The amount of GST-fusion protein specifically bound to the tethered peptide/protein is determined by ELISA using an anti-GST antibody conjugated to horse radish peroxidase. Compounds which block the interaction between the biotinylated peptide/protein and the GST-fusion protein cause a decrease in the ELISA signal.
In a specific example, an assay was developed to screen for compounds that block the interaction between the Bcl-2 homologs, Bcl-xL and Bak. A biotinylated Bak GD domain peptide (amino acid residues 71-89; N-biotinylated […] [SEQ ID NO: 35]) was bound to wells coated with neutravidin. […] Using this assay, peptides from Bcl-2 family members were identified which block the Bcl-xL/Bak GD domain interaction (FIG. 10).

[2] = target: T2, interaction of GST-Bcl-xL and Bak (Homo sapiens, UniProt Q07817); assay: In vitro binding assay: inhibition of GST-Bcl-xL binding to 35S-methionine-labeled Bak; conditions: peptide mixed with GST-Bcl-xL 30 minutes prior to addition to the binding assay
T2 construct: made in house; host or cells: GST-Bcl-xL: E. coli; Bak: rabbit reticulocyte lysate (Promega)
Description: An in vitro binding assay as described herein in Example A.3. was used to measure the inhibition of GST-Bcl-xL binding to in vitro translated ^35Met-labeled Bak by a 20-amino acid peptide derived from the Bak GD domain (70-89; […] [SEQ ID NO: 36]). The peptide was mixed with the GST-Bcl-xL protein 30 minutes prior to addition to the binding assay. The concentration of peptide in the binding assay is indicated. Control assay contains no peptide.
The beads were removed by centrifugation and the supernatants were incubated with GST or GST-Bcl-xL (final concentration […]) at 4° C. for 1 hour. The GST fusion proteins and any interacting proteins were recovered by incubation for 1 hour with an additional […] of GSH-agarose beads. The beads were washed twice with NP-40 lysis buffer followed by two washes with NP-40 lysis buffer without NP-40. Proteins were eluted from the beads by incubation in SDS-PAGE sample buffer at 100° C. for 5 min and loaded onto 4-20% SDS-polyacrylamide gels. Following electrophoresis, gels were fixed and incubated in a fluorography enhancing solution (Amplify; Amersham). […]
GST-Bcl-xL, or GST-Bcl-2 is incubated with a labeled GD domain-containing protein in the presence of a test compound. Resulting protein complexes are captured on GSH-agarose beads and the amount of labeled interacting protein is measured. […]

T1 sequence (Q07817 whole entry, the tested form may be a part): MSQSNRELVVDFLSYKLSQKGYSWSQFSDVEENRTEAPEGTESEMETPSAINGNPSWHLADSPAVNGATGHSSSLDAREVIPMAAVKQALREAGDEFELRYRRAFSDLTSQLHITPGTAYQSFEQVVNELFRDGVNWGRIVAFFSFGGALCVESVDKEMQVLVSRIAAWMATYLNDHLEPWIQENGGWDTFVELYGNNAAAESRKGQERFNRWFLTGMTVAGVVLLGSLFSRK
T2 sequence (Q07817 whole entry): as the sequence (Q07817 whole entry, the tested form may be a part) above

- inhibition of the interaction of GST-Bcl-xL and 35S-methionine-labeled Bak [2]: inhibition of the interaction
Sequence: TMGQVGRQLAIIGDDINRRY [Bak peptide, Bak GD domain peptide, amino acid residues 70-89]
- inhibition of Bcl-xL/Bak GD domain binding [1]: concentration-dependent inhibition of binding
